Here are results for six molecules from paper PMC5387054, “Zinc-Dependent Transcriptional Regulation in Paracoccus denitrificans”.

Data set [1] concerns the target T1, Zur (Paracoccus denitrificans) (UniProt A1B9K9).
T1 sequence: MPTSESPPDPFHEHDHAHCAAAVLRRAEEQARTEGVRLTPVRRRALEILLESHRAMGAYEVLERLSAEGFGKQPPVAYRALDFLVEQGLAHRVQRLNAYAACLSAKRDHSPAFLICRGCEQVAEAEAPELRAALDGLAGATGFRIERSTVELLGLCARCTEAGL
The data set is described as follows: EMSA. As to conditions: EMSA: 10 mM Tris pH 8.0, 10 mM NaCl, 100 mM K-glutamate, 50 mM KCl, 1 mM DTT, 1.07 ug/ml BSA, 0.1 uM DNA, 0-20 uM Zur, 25 uM ZnCl2, 100 uM EDTA; 30 min room …. In general terms: A gel shift assay detects complexes by their altered migration in electrophoresis.

Data set [2] concerns the target Paracoccus denitrificans zinc uptake regulator (Zur) (Paracoccus denitrificans PD1222). The data set is described as follows: SEC; Factor Xa cleavage reaction mixture applied to a Hi-Prep Sephacryl S-100 HR column, 20 mM Tris pH 8.0, 150 mM NaCl, calibrated with proteins of 6.5 to 75 kDa. (In general: In gel filtration, larger molecules generally elute earlier.)
A further data set concerns the target T2, Zur (Paracoccus denitrificans, UniProt A1B9K9 1-164).
T2 sequence: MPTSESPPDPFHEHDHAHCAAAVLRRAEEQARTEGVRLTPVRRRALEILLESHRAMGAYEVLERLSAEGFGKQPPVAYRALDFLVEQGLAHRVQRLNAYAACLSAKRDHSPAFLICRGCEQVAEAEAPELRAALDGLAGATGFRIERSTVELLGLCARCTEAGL
The data set is described as follows: competition; probe zur/znuA 0.1 uM; 10 uM Zur, 25 uM Zn2+, 100 uM EDTA; 5 uM competitor; shift disrupted, not fully displaced; EMSA: 10 mM Tris pH 8.0, 10 mM NaCl, 100 mM K-glutamate, 50 mM KCl, 1 mM DTT, 1.07 ug/ml BSA, 0.1 uM DNA, 0-20 uM Zur, 25 uM ZnCl2, 100 uM EDTA; 30 min room temperature; 8% native PAGE at 4 C. The conditions noted are these: protein: recombinant; tags: MBP (pMAL-c5X) removed by Factor Xa; chain copies: 2; blunt.

As for “GCCGCCCGCTGACCAGATTTCCGCCGGGACCAGCCTGCGCCCGTCCCGGCGCCCTCCCCCGAACCCCATCAAGGAGACTTTCCATGCTCAGACATCTCGCGGGCGCCAGCGCCCTTGCCCTGACCTT (double strand) [aztD promoter (negative control, 128 bp)]”, the binding result in data set [1] is “binds more weakly”.
In the case of “Paracoccus denitrificans zinc uptake regulator (Zur) (natural protein)”, in data set [2], the stoichiometry N was determined as 2.
On to “AAGAGAGGGTTGAGCCTGCCCGGTAAAGGGCCGGGCGGGATGATCCGCCAGGCGCATGGGCGAAGCCCTCTTGCATCCCCGGGTGGGTAATATAATAACATAACAAAATCTCCGAGGATAACGCTCATGCTCTGCAAACTGCTCGCTT (double strand) [pden1341 promoter]”, for which, in data set [1], the binding entry is recorded as “binds”.
Turning to “CGGCAAGGACAAGGGAAGAAGGTCGGATCATGGCGAGACTCACTTGCGGAAACGCCAAGGTTATTTATGTTATATCGTAACCCGTCAAGCAAAAATGTAACGATATAACATCATGCCCACTTCGGAATCCCCGCCTGACCCGTTTCACG (double strand) [zur/znuA promoter (149 bp)]”, the binding entry in data set [1] is reported as “binds”.
As for “AATCACAAAACCGGCGCCTCGGCATTTCCCCGCTGATGCTTTGCCCTCTCGCCGCGGGTCCTGCGGCTTTTCGGACGACCGGCGCGGCATGGCTTGCCGTTCCGGTTTAGTAATGTAATAACATCACCAAAATATCGAGTCCGCTATCCAGTGATGCCCAGAACC (double strand) [aztA promoter]”, in data set [1], the binding entry is reported as “binds”.

B1: specific competitor (zur/znuA), 59 bp (dsDNA)
DNA 1: GGGCATGATGTTATATCGTTACATTTTTGCTTGACGGGTTACGATATAACATAAATAAC
DNA 2: GTTATTTATGTTATATCGTAACCCGTCAAGCAAAAATGTAACGATATAACATCATGCCC
For the molecule B1, the binding result with Zur was “binds”.

Usually stoichiometry N stands for a count of units in the complex or per binding partner.
